Measured values: paper PMC3281069

Biological target: E2 wild type, E2 subunit (acyltransferase component) of the pyruvate dehydrogenase complex of Geobacillus stearothermophilus (Geobacillus stearothermophilus) (UniProt P11961)
Experiment: SEC; E2wt on a Superdex200 gel filtration column in Solubility Buffer 2.2 (1x PBS, 50 mM L-glutamine, 50 mM NaCl, 250 mM L-arginine)

stoichiometry N: 60
Substance: E2 wild type, E2 subunit (acyltransferase component) of the pyruvate dehydrogenase complex of Geobacillus stearothermophilus (from UniProt P11961 1-428) (natural protein)
